Experiment [1] has as its target T1, Ssa1 (wild type, His-tagged) (S. cerevisiae, UniProt P10591 1-642).
T1 construct: Ssa1, cytosolic Hsp70 of Saccharomyces cerevisiae; Ssa1(1-532) is said to lack 110 residues, so the whole protein has 642 residues; Assayed with 1 mM ADP (anisotropy) or as a preformed 32P-ATP complex (ATPase); also called WT Ssa1; His-Ssa

Experiment [2] addresses T1, Ssa1 (wild type, His-tagged). As to the kind of experiment: fluorescence polarisation; equilibrium titration: 10 nM F-P5 with Ssa1 in 2-fold steps from 2.4 nM to 5 uM, 1 mM ADP, buffer A (25 mM Hepes-KOH pH 7.5, 100 mM KCl, 11 mM MgOAc), 4% glycerol, 0.005% NP-40, 24 hr at room temperature (23°C); one site saturation fit. To be noted: both partners purified. In general terms: In fluorescence polarisation assays a small probe gives low polarisation when free and higher when bound to something large.

The target of experiment [3] is T2, Ssa1 K446E (His-tagged) (S. cerevisiae, UniProt P10591 1-642, K446E).
T2 construct: Ssa1, cytosolic Hsp70 of Saccharomyces cerevisiae, with K446E (in SBDbeta); made by QuikChange in the purification plasmid; Same construct as m1 with the point mutation; also called K446E variant
T2 sequence (P10591 whole entry K446E): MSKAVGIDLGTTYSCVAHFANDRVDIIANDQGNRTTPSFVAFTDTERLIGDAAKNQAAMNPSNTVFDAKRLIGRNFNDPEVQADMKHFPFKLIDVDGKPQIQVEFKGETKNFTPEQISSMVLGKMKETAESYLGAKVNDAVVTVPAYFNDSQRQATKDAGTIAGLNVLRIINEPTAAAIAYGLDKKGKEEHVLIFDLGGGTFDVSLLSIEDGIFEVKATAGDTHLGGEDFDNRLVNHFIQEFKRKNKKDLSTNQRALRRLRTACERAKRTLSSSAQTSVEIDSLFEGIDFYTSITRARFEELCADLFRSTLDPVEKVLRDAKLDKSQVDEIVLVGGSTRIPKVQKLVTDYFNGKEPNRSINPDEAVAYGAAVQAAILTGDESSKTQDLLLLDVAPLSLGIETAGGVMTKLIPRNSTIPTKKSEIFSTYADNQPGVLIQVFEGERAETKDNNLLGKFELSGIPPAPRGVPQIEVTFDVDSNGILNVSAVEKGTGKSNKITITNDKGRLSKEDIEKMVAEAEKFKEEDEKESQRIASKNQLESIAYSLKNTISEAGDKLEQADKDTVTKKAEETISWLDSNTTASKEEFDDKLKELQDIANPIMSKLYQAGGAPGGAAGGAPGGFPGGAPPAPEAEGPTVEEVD
The description is as above. Particulars: both partners purified.

The target of experiment [4] is T3, Ssa1 R444E (His-tagged) (S. cerevisiae, UniProt P10591 1-642, R444E).
T3 construct: Ssa1, cytosolic Hsp70 of Saccharomyces cerevisiae, with R444E (in SBDbeta); made by QuikChange in the purification plasmid; Same construct as m1 with the point mutation; also called R444E variant
T3 sequence (P10591 whole entry R444E): as the sequence (P10591 whole entry K446E) above, with R444E, E446K counted along it
The experiment is described as above. Particulars: both partners purified.

Experiment [5] has as its target T1, Ssa1 (wild type, His-tagged). As to the kind of experiment: fluorescence polarisation; dissociation kinetics: 5 uM Ssa1, 10 nM F-P5, 1 mM ADP brought to equilibrium, then unlabeled P5 added to 40 uM; read every 10 s; percent of the signal at t = 0. Particulars: both partners purified.
In experiment [6] the target is T2, Ssa1 K446E (His-tagged). The experiment can be described thus: cell-based or functional assay.
Experiment [7] has as its target T3, Ssa1 R444E (His-tagged). The experiment can be described thus: cell-based or functional assay.

Where no end group is shown, it is not given here. Flc = fluorescein label

T1 sequence (P10591 whole entry): as the sequence (P10591 whole entry K446E) above, with E446K counted along it

In experiment [1], “Ydj1 G70N (from UniProt P25491 1-409) (natural protein)” displayed a stimulation of single-turnover ATPase activity of the 32P-ATP/Ssa1 complex, compared with WT Ydj1 (% less active than WT) of 20.

B1: fluorescein-labeled P5 peptide (peptide)
peptide: Flc-CALLLSAPRR
notes: peptide substrate P5; also called F-P5; source: bought: Sigma Chemical, St. Louis, MO
As for B1, the binding result (in experiment [2]; in the experiment with Ssa1 K446E (His-tagged) [3]; in the experiment with Ssa1 R444E (His-tagged) [4]) was “binds” in each case.

B2: peptide P5 (unlabeled) (peptide)
peptide: CALLLSAPRR
notes: peptide substrate P5; also called unlabeled P5; peptide substrate; source: bought: Sigma Chemical, St. Louis, MO
For B2, the binding result in experiment [5] is on record as “binds”. The “fold stimulation of single-turnover ATPase activity of the 32P-ATP/Ssa1 complex by peptide P5, relative to basal activity (four P5 concentrations; value at 133 uM)” value worked out at 2.8 fold in the experiment with Ssa1 K446E (His-tagged) [6] and 1.7 fold with Ssa1 R444E (His-tagged) [7].

These data come from article PMC5679652, “Broadening the functionality of a J-protein/Hsp70 molecular chaperone system” (PLoS Genetics, 2017).
